Data published in patent WO2020033925A2 (dated 2020).

Molecular target: human BTN3A1 ectopically expressed on K32 cells (human, UniProt O00481 30-513)
Experiment: cell-based or functional assay

Chain of human BTN3A1 ectopically expressed on K32 cells (O00481 30-513 limits assumed, form in doubt): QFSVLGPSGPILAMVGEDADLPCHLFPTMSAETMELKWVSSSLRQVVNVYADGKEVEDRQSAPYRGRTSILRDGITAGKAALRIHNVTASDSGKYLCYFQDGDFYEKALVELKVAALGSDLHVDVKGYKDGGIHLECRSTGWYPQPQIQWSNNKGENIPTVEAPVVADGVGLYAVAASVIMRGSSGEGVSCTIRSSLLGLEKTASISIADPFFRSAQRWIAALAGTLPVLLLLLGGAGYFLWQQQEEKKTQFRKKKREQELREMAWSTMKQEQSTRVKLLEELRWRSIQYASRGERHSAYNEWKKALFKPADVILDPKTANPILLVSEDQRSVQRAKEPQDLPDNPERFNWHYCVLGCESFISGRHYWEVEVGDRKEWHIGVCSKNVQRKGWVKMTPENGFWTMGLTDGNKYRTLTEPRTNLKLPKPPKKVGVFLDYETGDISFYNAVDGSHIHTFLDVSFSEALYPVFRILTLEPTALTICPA

- proliferation of gated CD4+ T cells within total PBMCs co-cultured with anti-CD3/anti-CD28 coated BTN-K32 cells (Figure 3A): ≥ 1.5 fold
- proliferation of gated CD8+ T cells within total PBMCs co-cultured with anti-CD3/anti-CD28 coated BTN-K32 cells (Figure 3C): ≥ 1.5 fold
- proliferation of purified CD4+ T cells stimulated with BTN-K32 cells (Figure 4A): ≥ 1.5 fold
- proliferation of purified CD8+ T cells stimulated with BTN-K32 cells (Figure 4C): ≥ 2 fold
- release of IFN-g from purified CD4+ T cells stimulated with BTN-K32 cells (ELISA, Figure 5A): > 2 fold
- release of IFN-g from purified CD8+ T cells stimulated with BTN-K32 cells (ELISA, Figure 5C): ~1300 fold
B1: anti-CD277 monoclonal antibody mAb1 (antibody, V domains shown)
VH: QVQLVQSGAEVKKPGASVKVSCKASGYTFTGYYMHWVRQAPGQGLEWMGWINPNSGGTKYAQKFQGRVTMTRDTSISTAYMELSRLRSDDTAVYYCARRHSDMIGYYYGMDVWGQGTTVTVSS
VL: DIQMTQSPSSVSASVGDRVTITCRASQGISSWLAWYQQKPGKAPKLLIYAASSLQSGVPSRFSGSGSGTDFTLTISSLQPEDFATYYCQQATDFPPTFGGGTKVEIK
